# Target: S-chain of the optimized human DROP-CAR containing dmLD3 (human)
substance,measurement,value
R-domain of the anti-PSMA DROP-CAR (J591 scFv fused to Bcl-2),"percent of anti-PSMA DROP-CAR Jurkat cells still bound to a PC3-PIP monolayer at 1,000 pN (z-Movi acoustic force ramp), with venetoclax, partially detached cells counted as bound",30%
same,"percent of anti-PSMA DROP-CAR Jurkat cells still bound to a PC3-PIP monolayer at 1,000 pN (z-Movi acoustic force ramp), with venetoclax, partially detached cells counted as dissociated",< 10%
same,"percent of anti-PSMA DROP-CAR Jurkat cells still bound to a PC3-PIP monolayer at 1,000 pN (z-Movi acoustic force ramp), without venetoclax, partially detached cells counted as bound",64%
same,"percent of anti-PSMA DROP-CAR Jurkat cells still bound to a PC3-PIP monolayer at 1,000 pN (z-Movi acoustic force ramp), without venetoclax, partially detached cells counted as dissociated",30%

# — article PMC13612217
